Patent US6858210B1, “Therapeutic and diagnostic domain 1 β2GPI polypeptides and methods of using same” (La Jolla Pharmaceutical Co., priority 1998, dated 2005)
Values joined by “and” are separate entries in the source; they are usually repeats but may differ in a detail not shown here. Equal values may be shown once. Read-outs that look alike come from different tables or passages of the source.

Experiments:
[1] = system: affinity purified β2GPI-dependent antiphospholipid antibody; assay: Competitive inhibition ELISA: recombinant β2GPI proteins compete for antibody binding to coated full length recombinant β2GPI; set-up: species or system human; conditions: for IC50: read-out: 50% (concentration to give 50% inhibition)
In short: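 Wells coated with full-length recombinant β2GPI (10 μg/ml, pH 9.5) and milk-blocked. Serially diluted recombinant β2GPI proteins were co-incubated with a fixed concentration of patient antibody for 1 h at 37 °C. Bound IgG detected with alkaline phosphatase anti-human IgG at OD550; percent inhibition is background-corrected against inhibitor-free wells.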

[2] = system: affinity purified β2GPI-dependent antiphospholipid antibody; assay: Direct binding ELISA, nickel chelate-coated wells charged with recombinant β2GPI proteins (no cardiolipin); set-up: species or system human; conditions: O.D. at 550 nm
In short: (§1)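 His-tagged recombinant β2GPI mutants captured on nickel chelate wells in serial dilution (2 h, room temperature), no anionic phospholipid; GST-6his as negative control. Affinity-purified patient antibodies (11 patients) or rabbit anti-β2GPI detected by alkaline phosphatase anti-IgG, OD 550 nm.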

rabbit anti-β2GPI = assay: Direct binding ELISA, nickel chelate-coated wells, rabbit antibody; conditions: O.D. at 550 nm
In short: as §1

B1: 12345: recombinant full length human β2GPI (domains 1-5) with C-terminal GlyHis6, baculovirus expressed (protein)
chain: GRTCPKPDDLPFSTVVPLKTFYEPGEEITYSCKPGYVSRGGMRKFICPLTGLWPINTLKCTPRVCPFAGILENGAVRYTTFEYPNTISFSCNTGFYLNGADSAKCTEEGKWSPELPVCAPIICPPPSIPTFATLRVYKPSAGNNSLYRDTAVFECLPQHAMFGNDTITCTTHGNWTKLPECREVKCPFPSRPDNGFVNYPAKPTLYYKDKATFGCHDGYSLDGPEEIECTKLGNWSAMPSCKASCKLPVKKATVVYQGERVKIQEKFKNGMLHGDKVSFFCKNKEKKCSYTEDAQCIDGTIEVPKCFKEHSSLAFWKTDASDVKPCGHHHHHH
[1]; Ab 6203
  Max (maximum inhibition observed at concentrations tested): 75%
  IC50: 0.8 µM
[1]; Ab 6501
  Max (maximum inhibition observed at concentrations tested): 80%
  IC50: 0.2 µM
[1]; Ab 6509
  Max (maximum inhibition observed at concentrations tested): 70%
  IC50: 0.1 µM
[1]; Ab 6626
  Max (maximum inhibition observed at concentrations tested): 80%
  IC50: 0.3 µM
[1]; Ab 6632
  Max (maximum inhibition observed at concentrations tested): 90%
  IC50: 0.8 µM
[1]; Ab 6641
  Max (maximum inhibition observed at concentrations tested): 96%
  IC50: 0.1 µM
[1]; Ab 6644
  Max (maximum inhibition observed at concentrations tested): 90%
  IC50: 0.2 µM
[1]; Ab 6652
  Max (maximum inhibition observed at concentrations tested): 95%
  IC50: 0.8 µM
[1]; Ab 6701
  Max (maximum inhibition observed at concentrations tested): 100%
  IC50: 0.1 µM
[1]; Ab 7008
  Max (maximum inhibition observed at concentrations tested): 90%
  IC50: 0.2 µM
[1]; Ab 7015
  Max (maximum inhibition observed at concentrations tested): 90%
  IC50: 0.2 µM
[1]; Ab 7101
  Max (maximum inhibition observed at concentrations tested): 80%
  IC50: 0.8 µM
[1]; Ab 7104
  Max (maximum inhibition observed at concentrations tested): 90%
  IC50: 0.8 µM
[2]; Ab 6203
  Maximum O.D.: 1.270
[2]; Ab 6501
  Maximum O.D.: 1.772
[2]; Ab 6626
  Maximum O.D.: 1.527
[2]; Ab 6632
  Maximum O.D.: 1.419
[2]; Ab 6641
  Maximum O.D.: 2.555
[2]; Ab 6644
  Maximum O.D.: 1.848
[2]; Ab 6652
  Maximum O.D.: 0.640
[2]; Ab 6701
  Maximum O.D.: 0.948
[2]; Ab 7008
  Maximum O.D.: 1.380
[2]; Ab 7015
  Maximum O.D.: 1.864
[2]; Ab 7101
  Maximum O.D.: 1.257
Rabbit anti-β2GPI
  Maximum O.D.: 2.065

B2: recombinant β2GPI domain 5 with GlyHis6 (----5) (protein)
chain: GRASCKLPVKKATVVYQGERVKIQEKFKNGMLHGDKVSFFCKNKEKKCSYTEDAQCIDGTIEVPKCFKEHSSLAFWKTDASDVKPCGHHHHHH
[1]; Ab 6203
  Max (maximum inhibition observed at concentrations tested): 5%
  IC50: > 47 µM
[1]; Ab 6501
  Max (maximum inhibition observed at concentrations tested): 10%
  IC50: > 47 µM
[1]; Ab 6509
  Max (maximum inhibition observed at concentrations tested): 10%
  IC50: > 47 µM
[1]; Ab 6626
  Max (maximum inhibition observed at concentrations tested): 10%
  IC50: > 47 µM
[1]; Ab 6632
  Max (maximum inhibition observed at concentrations tested): 10%
  IC50: > 47 µM
[1]; Ab 6641
  Max (maximum inhibition observed at concentrations tested): 10%
  IC50: > 47 µM
[1]; Ab 6644
  Max (maximum inhibition observed at concentrations tested): 10%
  IC50: > 47 µM
[1]; Ab 6652
  Max (maximum inhibition observed at concentrations tested): 15%
  IC50: > 47 µM
[1]; Ab 6701
  Max (maximum inhibition observed at concentrations tested): 10%
  IC50: > 47 µM
[1]; Ab 7008
  Max (maximum inhibition observed at concentrations tested): 20%
  IC50: > 47 µM
[1]; Ab 7015
  Max (maximum inhibition observed at concentrations tested): 10%
  IC50: > 47 µM
[1]; Ab 7101
  Max (maximum inhibition observed at concentrations tested): 5%
  IC50: > 47 µM
[1]; Ab 7104
  Max (maximum inhibition observed at concentrations tested): 0%
  IC50: > 47 µM
[2]; Ab 6203
  Maximum O.D.: 0.044
[2]; Ab 6501
  Maximum O.D.: 0.004
[2]; Ab 6626
  Maximum O.D.: 0.028
[2]; Ab 6632
  Maximum O.D.: 0.013
[2]; Ab 6641
  Maximum O.D.: 0.018
[2]; Ab 6644
  Maximum O.D.: 0.017
[2]; Ab 6652
  Maximum O.D.: 0.012
[2]; Ab 6701
  Maximum O.D.: 0.000
[2]; Ab 7008
  Maximum O.D.: 0.007
[2]; Ab 7015
  Maximum O.D.: 0.078
[2]; Ab 7101
  Maximum O.D.: 0.078
Rabbit anti-β2GPI
  Maximum O.D.: 1.663

B3: 1----: recombinant β2GPI protein with domain 1 only (SEQ ID NO:4 region), His6 tail (protein)
chain: GRTCPKPDDLPFSTVVPLKTFYEPGEEITYSCKPGYVSRGGMRKFICPLTGLWPINTLKCTPRVGHHHHHH
[1]; Ab 6203
  Max (maximum inhibition observed at concentrations tested): 60%
  IC50: > 10 µM
[1]; Ab 6203, listed as 1 - - - -
  Max (maximum inhibition observed at concentrations tested): 20%
[1]; Ab 6501
  Max (maximum inhibition observed at concentrations tested): 70%
[1]; Ab 6501, listed as 1 - - - -
  Max (maximum inhibition observed at concentrations tested): 30%
  IC50: > 10 µM
[1]; Ab 6626
  Max (maximum inhibition observed at concentrations tested): 85%
  IC50: 8 µM and > 10 µM
[1]; Ab 6626, listed as 1 - - - -
  Max (maximum inhibition observed at concentrations tested): 50%
  IC50: > 10 µM
[1]; Ab 6632
  Max (maximum inhibition observed at concentrations tested): 90%
  IC50: 8 µM
[1]; Ab 6632, listed as 1 - - - -
  Max (maximum inhibition observed at concentrations tested): 70%
  IC50: 3 µM
[1]; Ab 6641
  Max (maximum inhibition observed at concentrations tested): 98%
  IC50: > 10 µM
[1]; Ab 6644
  Max (maximum inhibition observed at concentrations tested): 90%
  IC50: 8 µM and > 10 µM
[1]; Ab 6644, listed as 1 - - - -
  Max (maximum inhibition observed at concentrations tested): 45%
  IC50: > 10 µM
[1]; Ab 6701
  Max (maximum inhibition observed at concentrations tested): 80%
  IC50: 4 µM
[1]; Ab 7008
  Max (maximum inhibition observed at concentrations tested): 70%
  IC50: > 10 µM
[1]; Ab 7008, listed as 1 - - - -
  Max (maximum inhibition observed at concentrations tested): 40%
[1]; Ab 7015
  Max (maximum inhibition observed at concentrations tested): 90%
  IC50: 8 µM and > 10 µM
[1]; Ab 7015, listed as 1 - - - -
  Max (maximum inhibition observed at concentrations tested): 30%
  IC50: > 10 µM
[1]; Ab 7101
  Max (maximum inhibition observed at concentrations tested): 70%
  IC50: 8 µM and > 10 µM
[1]; Ab 7101, listed as 1 - - - -
  Max (maximum inhibition observed at concentrations tested): 20%
  IC50: > 10 µM
[1]; Ab 7104
  Max (maximum inhibition observed at concentrations tested): 90%
  IC50: 0.8 µM
[2]; Ab 6203
  Maximum O.D.: 1.029
[2]; Ab 6501
  Maximum O.D.: 0.911
[2]; Ab 6626
  Maximum O.D.: 0.560
[2]; Ab 6632
  Maximum O.D.: 0.351
[2]; Ab 6641
  Maximum O.D.: 0.252
[2]; Ab 6644
  Maximum O.D.: 0.493
[2]; Ab 6652
  Maximum O.D.: 0.262
[2]; Ab 6701
  Maximum O.D.: 0.388
[2]; Ab 7008
  Maximum O.D.: 0.195
[2]; Ab 7015
  Maximum O.D.: 1.102
[2]; Ab 7101
  Maximum O.D.: 0.804
Rabbit anti-β2GPI
  Maximum O.D.: 1.9737
